For assay [1], the target named is T1, Human SORT1 (78-755)-His (human, UniProt Q99523 78-755).
T1 construct: range 78-755; Amine-coupled to CM5 chip for SPR; Two suppliers are named (Acrobiosystems, GenScript)
T1 sequence (looked up): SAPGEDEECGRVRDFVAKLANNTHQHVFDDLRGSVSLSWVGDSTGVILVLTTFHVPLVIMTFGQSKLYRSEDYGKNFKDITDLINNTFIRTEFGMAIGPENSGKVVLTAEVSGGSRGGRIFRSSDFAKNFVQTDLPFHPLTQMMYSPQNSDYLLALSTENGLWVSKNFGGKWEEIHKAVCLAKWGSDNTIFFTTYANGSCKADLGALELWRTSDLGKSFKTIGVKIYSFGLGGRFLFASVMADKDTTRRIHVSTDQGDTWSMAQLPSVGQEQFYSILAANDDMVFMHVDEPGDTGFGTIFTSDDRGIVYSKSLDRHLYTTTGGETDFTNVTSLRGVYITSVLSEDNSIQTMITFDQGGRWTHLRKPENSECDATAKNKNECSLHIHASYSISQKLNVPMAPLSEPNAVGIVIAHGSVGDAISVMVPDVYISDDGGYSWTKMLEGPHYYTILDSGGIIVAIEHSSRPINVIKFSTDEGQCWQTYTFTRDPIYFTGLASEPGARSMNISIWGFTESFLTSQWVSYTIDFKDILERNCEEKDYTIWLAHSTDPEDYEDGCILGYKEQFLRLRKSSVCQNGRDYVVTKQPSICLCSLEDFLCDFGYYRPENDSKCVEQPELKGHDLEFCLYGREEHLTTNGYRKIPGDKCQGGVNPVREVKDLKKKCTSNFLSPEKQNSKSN
Description: SPR (Biacore 8K), SORT1 on CM5 chip, siRNA-peptide conjugate as analyte, 1:1 model. How it is done:
(§1) SPR analysis was performed on Series S CM5 chips (Cytiva) using a Biacore 8K instrument (Cytiva). Sensorgrams were double-referenced by subtracting the response on both a reference flow cell and a blank sample. Human SORT1 (78-755)-His (Acrobiosystems), human SORT1 (78-755)-His(GenScript), mouse SORT1 (76-753)-His (R&D Systems), rat SORT1 (76-752)-His (GenScript), and cyno SORT1 (76-753)-His (GenScript) were diluted to 20-60 μg/mL in 10 mM sodium acetate pH 4.5 buffer and immobilized onto Series S CM5 chips using amine coupling at a flow rate of 10 μL/min for 45-100 s.
(§2) Ten start-up cycles and a blank cycle preceded each analysis run. The runs were performed by sequential injections of analyte (0-20 nM, 3-fold serial dilutions) with a 90 s association and 900 s dissociation at a flow rate of 30 μL/min, followed by two regeneration cycles with 2 M MgCl2 for 90 s at a flow rate of 10 μL/min. […] Five start-up cycles and a blank cycle preceded each analysis run. The runs were performed by sequential injections of analyte (0-25 nM) with a 150 seconds (s) association and 300 s dissociation at a flow rate of 30 μL/min, followed by a regeneration with 2 M MgCl₂ for 200 s at a flow rate of 10 μL/min. The kinetic rate constants (kₐ and kd) and the equilibrium binding constant (Kd) were calculated using a 1:1 kinetic binding model on the Biacore Insight Evaluation Software (Cytiva).
(§3) SPR analysis was performed on Series S CM5 chips (Cytiva) using a Biacore 8K instrument (Cytiva). Sensorgrams were double-referenced by subtracting the response on both a reference flow cell and a blank sample. The SPR analysis was conducted using four different SORT1 species: Human SORT1, Mouse SORT1, Rat SORT1, and Cyno SORT1. The samples were prepared according to the general procedure described above herein. The kinetic rate constants (ka and […]) and the equilibrium binding constant (Kd) were calculated using a 1:1 kinetic binding model on the Biacore Insight Evaluation Software (Cytiva).

Assay [2] deals with T2, mouse SORT1 (76-753)-His (mouse, UniProt Q6PHU5 76-753).
T2 construct: range 76-753; Amine-coupled to CM5 chip for SPR
T2 sequence (looked up): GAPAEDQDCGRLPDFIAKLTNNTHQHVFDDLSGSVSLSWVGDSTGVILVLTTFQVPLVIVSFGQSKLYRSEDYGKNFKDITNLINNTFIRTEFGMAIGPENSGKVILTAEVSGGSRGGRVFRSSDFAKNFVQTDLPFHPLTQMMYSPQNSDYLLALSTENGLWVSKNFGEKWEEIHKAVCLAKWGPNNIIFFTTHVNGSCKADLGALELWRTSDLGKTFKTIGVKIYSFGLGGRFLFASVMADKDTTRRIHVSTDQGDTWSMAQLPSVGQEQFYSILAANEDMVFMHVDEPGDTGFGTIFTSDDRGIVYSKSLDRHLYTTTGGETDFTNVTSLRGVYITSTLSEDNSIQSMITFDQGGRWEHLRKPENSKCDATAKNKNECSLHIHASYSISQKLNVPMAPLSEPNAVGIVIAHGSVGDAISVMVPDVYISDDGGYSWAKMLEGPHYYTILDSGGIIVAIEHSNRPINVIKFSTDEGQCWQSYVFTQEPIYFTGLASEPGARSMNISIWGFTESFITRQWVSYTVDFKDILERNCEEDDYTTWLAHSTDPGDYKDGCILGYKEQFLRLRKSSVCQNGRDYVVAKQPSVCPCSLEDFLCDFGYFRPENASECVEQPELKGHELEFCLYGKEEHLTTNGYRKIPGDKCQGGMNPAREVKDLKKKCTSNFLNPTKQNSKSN
Described as above. How it is done:
as §1, §2, §3

Bridges are numbered along the chain shown (N, C = ends). Where no end group is shown, it is not given here. Side-chain parts run from the residue outwards. [ ]: non-standard residue; d: D form. tBuAla = CC(C)(C)C[C@H](N)C(=O)O; Tle = CC(C)(C)[C@H](N)C(=O)O; linker = not defined here; Nle = CCCC[C@H](N)C(=O)O; siRNA = not defined here

For one molecule, Kd results are on record in patent publication US20260183411A1, “TARGETING SORTILIN” (priority 2024, published 2026).

As a reminder, the Kd is the concentration at which binding is half-saturated. Read a high Kd as a looser complex.

B1: SORT1 peptide 3 conjugate (peptide)
peptide: RWCENK([linker-siRNA])R[Nle]FTCRQ[Tle][tBuAla]
modifications: disulfide 3-11 (inferred); not fully specified; printed as RWCENKR(Nle)FTCRQ(B13)(F02); reading uncertain
notes: also called SORT1 peptide 3 siRNA conjugate
In the case of B1, the figures for the Kd in assay [1] and in assay [2] were 108 nM and 178 nM, respectively.
